# Experimental data: patent US12502562B2, “Human iPSC-derived brain organoids and uses thereof” (CITY OF HOPE, priority 2020, dated 2025)
# B1: 1B2: Mouse monoclonal anti-CMV PC neutralizing antibody that targets the UL128/130/131A subunits of the PC (antibody, V domains shown)
# VH: EVQLVESGGVLVKPGGSLKLSCAASGFTFSDYYMYWVRQTPEKRLEWVATISDDGNYTNYPDSVKGRFTISRDNAKNNLYLQMSSLKSEDTAMYYCARGWLLPVFAYWGQGTLVTVSA
# VL: DIVLTQSPATLSVTPGDSVSLSCRASQSIGNNLHWYQQKSHESPRLLIKYTSQSISGIPSRFSGSGSGTDFTLNINSVETEDFGVYFCQQSNRWPWTFGGGTKLEIK
# B2: 62-11: Mouse monoclonal gH-specific HCMV neutralizing antibody raised against the envelope PC by vaccination (antibody, V domains shown)
# VH: QVQLQQPGAELVRPGASVKLSCKASGYTFTSYWMNWVKQRPGQGLEWIGMIDPSDSETHYNQMFKDKATLTVDKSSSTAYMQLSSLTSEDSAVYYCSNGYSSFAYWGQGTLVTVSV
# VL: DVQMTQTTSSLSASLGDRVTISCSASQGISNYLNWYQQKPDGTVKLLIYDTSSLHSGVPSRFSGSGSGTDYSLTISNLEPEDIATYYCQQYSKLPYTFGGGTKLEIK
# How the values were obtained:
# [1] = system: hiPSC-derived brain organoids; test: MEA recording of hiPSC-derived brain organoids with neuronal blockers; format: cell-based, human; details: uninfected brain organoids, blocker 10 μM applied immediately before recording
# Protocol: (§1) Microelectrode Arrays (MEA). Brain organoids at day 45 of differentiation were partially dissociated and seeded onto 12-well transparent MEA plates at three brain organoids per well. Brain organoids were cultured in BrainPhys medium, including 1×B27, 1×N2, 20 ng/ml GDNF, 20 ng/ml BDNF, 500 μg/ml Dibutyryl-cAMP, 1× Glutamax, and 1× NEAA. MEA recordings were performed at 37° C. in a Maestro MEA system with AxIS software using a bandwidth with a filter for 10 Hz to 2.5 kHz cutoff frequencies. Spike detection was performed using an adaptive threshold set to 5.5 times of the standard deviation of the estimated noise on each electrode. For recordings, following a 5-minute resting time in the Maestro instrument, each plate was recorded for 10 minutes to calculate the spike rate per well. When a recording of 5 spikes over the length of 1 minute (5 spikes per minute) was obtained, the electrode was considered active. Individual electrode bursts were identified using an adaptive Poisson surprise algorithm, while network bursts were identified for each well using a non-adaptive algorithm requiring a minimum of 10 spikes with a maximum inter-spike interval of 100 ms. Multielectrode data analysis was performed using the Axion Biosystems NeuralMetrics Tool. Synchrony index was calculated by NeuralMetric Tool with synchrony window set as 20 ms. […]
# HCMV TB40/E [2] = test: Receptor-specific siRNA treatment of brain organoids followed by TB40/E infection; format: cell-based, Human cytomegalovirus; details: for GFP fluorescence of siRNA-treated infected brain organoids / growth kinetics of siRNA-treated infected brain organoids: siRNA for 4 days, then GFP-labeled TB40/E, up to 20 days post infection, compared to control siRNA; for susceptibility of brain organoids to TB40/E: siRNA-mediated knockdown, summary statement
# Protocol: (§2) HCMV infection of brain organoids. Brain organoids at day 45 of differentiation were seeded in 24-well plates and exposed to 5×10^5 pfu/ml of HCMV virus for 24 hours. Following infection, 1 ml medium was replaced, and each organoid was placed in a single well for the duration of the experiment. At different time points post infection, each organoid was evaluated for GFP fluorescence intensity and organoid size in diameter using the same microscopy setting during each experiment.
# RNA interference. Oligonucleotides for siRNA-mediated RNA interference were synthesized by […]. For RNA interference in brain organoids, four brain organoids with similar size were seeded in ultralow 24-well plates (one organoid per well) and transfected with siRNA using siLentFect. After 96 hours incubation, each organoid was infected with TB40/E at 5×10^5 pfu/ml. Medium was changed the following day. Brain organoids were cultured for 20 days on shaker with continuous medium change every 3-4 days.
# HCMV TB40/E [3] = test: MEA recording of neural network activity in TB40/E-infected brain organoids; format: cell-based, Human cytomegalovirus; details: 4000 ng/ml NAb, MEA recording 2 weeks post infection
# Protocol: as §1
# HCMV strain TR = test: HCMV TR infection of hiPSC-derived brain organoids in the presence of NAb; format: cell-based, Human cytomegalovirus; details: GFP-labeled TR, IMR90 iPSC-derived organoids at day 45 of differentiation
# Protocol: as §2
# (§3) Brain organoid treatment with NAbs. 1B2 and 62-11 NAbs at final concentrations ranging from 3.2 ng/ml to 4000 ng/ml were incubated with 5×10^5 pfu/ml of HCMV for 1 hour at 37° C. and then transferred to brain organoid-containing wells. Normal mouse IgG was used as a control at the concentration of 2000 ng/ml. For proliferation assay, brain organoids were incubated with 10 μM BrdU for 2 hours and fixed in 4% paraformaldehyde (PFA) for 1 hour, followed by immunostaining.
# (§4) Images were obtained with a Carl Zeiss LSM700 confocal microscope or Nikon Eclipse TE-2000-S microscope. Cortical layer thicknesses, brain organoid size and GFP fluorescence intensity of brain organoids were measured by Image J. For measuring the layer thickness, small rectangles were drawn to ensure two opposite sides to align with both layer marker dashed lines.
# HCMV TB40/E [4] = test: Cortical layer structure of TB40/E-infected brain organoids by layer marker immunostaining; format: cell-based, Human cytomegalovirus; details: NAb 2000 ng/ml, compared to IgG control
# Protocol: as §3
# Immunostaining. Cells on coverslip were fixed with 4% PFA in PBS for 15 minutes at room temperature. Brain organoids were fixed with 4% PFA for 1 hour and submerged in 30% sucrose overnight. The samples were embedded in OCT and sectioned at a thickness of 14 or 20 μm using Leica CM3050S. Cells or brain organoid sections were permeabilized and blocked with blocking solution (1×PBS containing 0.1% Triton X-100 and 5% normal donkey serum) for 1 hour. […]
# as §4
# [5] = system: HCMV infection of fibroblasts; details: cited from earlier work
# HCMV TB40/E [6] = test: HCMV TB40/E infection of hiPSC-derived brain organoids in the presence of NAbs (GFP fluorescence intensity, organoid size); format: cell-based, Human cytomegalovirus; details: for GFP fluorescence intensity of infected brain organoids / brain organoid growth kinetics (relative organoid size): GFP-labeled TB40/E, organoids at day 45 of differentiation, NAb 3.2-2000 ng/ml, up to 30 days post infection; for GFP fluorescence intensity of infected brain organoids / brain organoid growth kinetics (relative organoid size) / brain organoid size: compared to IgG control; for brain organoid size: TB40/E, 80-2000 ng/ml antibody; for prevention of HCMV infection of human brain organoids: summary statement
# Protocol: as §2, §3, §4
# [7] = system: HCMV infection of epithelial cells; details: cited from earlier work
molecule,measurement,setting,value
"N#Cc1cc2nc([O-])c([O-])nc2cc1[N+](=O)[O-].[Na+].[Na+] [CNQX, CNQX disodium salt]","spontaneous, synchronized burst and spikes of the neuronal network (MEA)",[1],could be quenched
"EGFR-specific siRNA: siRNA specific for EGFR, sense SEQ ID NO: 1, antisense SEQ ID NO: 2 (sense GACGGCGUCCGCAAGUGUA; antisense UACACUUGCGGACGCCGUCUU; listed as RNA, chemistry not given here)",GFP fluorescence of siRNA-treated infected brain organoids,HCMV TB40/E [2],no or very low GFP fluorescence
same,growth kinetics of siRNA-treated infected brain organoids,HCMV TB40/E [2],substantially higher growth kinetics
same,susceptibility of brain organoids to TB40/E,HCMV TB40/E [2],completely abrogated
"ITGA3-specific siRNA: siRNA specific for integrin α3, sense SEQ ID NO: 5, antisense SEQ ID NO: 6 (sense GCUACAUGAUUCAGCGCAA; antisense UUGCGCUGAAUCAUGUAGCUG; listed as RNA, chemistry not given here)",GFP fluorescence of siRNA-treated infected brain organoids,HCMV TB40/E [2],similar
same,growth kinetics of siRNA-treated infected brain organoids,HCMV TB40/E [2],similar
"ITGA5-specific siRNA: siRNA specific for integrin α5 (Dharmacon), sense SEQ ID NO: 7, antisense SEQ ID NO: 8 (sense GGGAACCUCACUUACGGCU; antisense AGCCGUAAGUGAGGUUCCCUU; listed as RNA, chemistry not given here) [reference compound]",GFP fluorescence of siRNA-treated infected brain organoids,HCMV TB40/E [2],similar
same,growth kinetics of siRNA-treated infected brain organoids,HCMV TB40/E [2],similar
"PDGFRα-specific siRNA: siRNA specific for PDGFRα, sense SEQ ID NO: 3, antisense SEQ ID NO: 4 (sense CCACCUUCAUCAAGAGAGA; antisense UCUCUCUUGAUGAAGGUGGAA; listed as RNA, chemistry not given here)",GFP fluorescence of siRNA-treated infected brain organoids,HCMV TB40/E [2],no or very low GFP fluorescence
same,growth kinetics of siRNA-treated infected brain organoids,HCMV TB40/E [2],substantially higher growth kinetics
same,susceptibility of brain organoids to TB40/E,HCMV TB40/E [2],completely abrogated
B1,neural network activity (MEA profile),HCMV TB40/E [3],largely prevented neural network impairment
same,infection of brain organoids by TR and its effect on brain organoid growth,HCMV strain TR,could be prevented
same,thickness of the TBR2+SVZ and the CTIP2+CP layers,HCMV TB40/E [4],much thicker
same,prevention of HCMV infection of fibroblasts,[5],unable to prevent
same,GFP fluorescence intensity of infected brain organoids,HCMV TB40/E [6],substantially reduced GFP fluorescence intensity
same,brain organoid growth kinetics (relative organoid size),HCMV TB40/E [6],markedly increased growth kinetics in a dose-dependent manner
same,brain organoid size,HCMV TB40/E [6],substantially larger
same,prevention of HCMV infection of human brain organoids,HCMV TB40/E [6],can potently prevent
same,inhibition of HCMV infection of epithelial cells,[7],exceptionally high potency
B2,prevention of HCMV infection of fibroblasts,[5],can potently interfere
same,GFP fluorescence intensity of infected brain organoids,HCMV TB40/E [6],substantially reduced GFP fluorescence intensity
same,brain organoid growth kinetics (relative organoid size),HCMV TB40/E [6],markedly increased growth kinetics in a dose-dependent manner
same,brain organoid size,HCMV TB40/E [6],substantially larger
same,prevention of HCMV infection of human brain organoids,HCMV TB40/E [6],can potently prevent
same,inhibition of HCMV infection of epithelial cells,[7],can potently interfere
